{"source": "paper PMC5436757", "about": "“In vivo and in vitro characterization of DdrC, a DNA damage response protein in Deinococcus radiodurans bacterium”", "key": {"DdrC [1]": {"biological_target": "T1, DdrC (Deinococcus radiodurans R1 ATCC 13939, UniProt Q9RYE6 1-231)", "T1 sequence": "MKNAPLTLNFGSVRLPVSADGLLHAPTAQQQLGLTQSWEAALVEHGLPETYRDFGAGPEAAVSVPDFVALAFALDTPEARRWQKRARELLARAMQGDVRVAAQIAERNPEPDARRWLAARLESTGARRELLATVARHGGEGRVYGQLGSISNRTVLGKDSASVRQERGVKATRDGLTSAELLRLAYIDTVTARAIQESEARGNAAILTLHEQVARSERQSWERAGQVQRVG", "experiment": "EMSA; same efficiency as 65.4% GC 81-mer; DdrC 0.175-2.8 uM; Buffer A: 40 mM Tris-HCl pH 7.8, 5 mM MgCl2, 1.5 mM DTT, 50 mM NaCl, 12% glycerol; 4 C (15 min stated for plasmid/viral DNA); gels run at 4 C", "conditions": "protein: recombinant; tags: C-terminal 6xHis (pET26b); label: 5' Cy5"}, "DdrC [2]": {"biological_target": "T1, DdrC", "experiment": "EMSA; discrete complex band appears at 40 nM DdrC; 3.3 nM DNA; Buffer A: 40 mM Tris-HCl pH 7.8, 5 mM MgCl2, 1.5 mM DTT, 50 mM NaCl, 12% glycerol; 4 C (15 min stated for plasmid/viral DNA); gels run at 4 C", "conditions": "protein: recombinant; tags: C-terminal 6xHis (pET26b)"}, "DdrC [3]": {"biological_target": "T1, DdrC", "experiment": "EMSA; same efficiency as 37% GC 81-mer; DdrC 0.175-2.8 uM; Buffer A: 40 mM Tris-HCl pH 7.8, 5 mM MgCl2, 1.5 mM DTT, 50 mM NaCl, 12% glycerol; 4 C (15 min stated for plasmid/viral DNA); gels run at 4 C", "conditions": "protein: recombinant; tags: C-terminal 6xHis (pET26b); label: 5' Cy5"}}}
{"binder": "81-mer 37% GC (ssDNA) DNA: GATTACCACGAGGAGTATCTTAAGAATTCTGATATACTTGAAGAAGACATACAGGAACAAGAACAAAGACTGAACGAGCTT", "values": [{"measurement": "binding result", "setting": "DdrC [1]", "result": "binds"}]}
{"binder": "oligo-67 ss (ssDNA) DNA: CTGTTTAAGAAATTCACCTCGAAAGCAAGCTGATAAACCGATACAATTAAAGGCTCCTTTTGGAGCC", "values": [{"measurement": "binding result", "setting": "DdrC [2]", "result": "binds"}]}
{"binder": "81-mer 65.4% GC (ssDNA) DNA: GTTGCTGGACGTACAGCGCCACTATGGCCGCCTGGGCTGGACCAGCGGCGAGATTCCGTCCGGGGGCTACCAGTTTCCCAT", "values": [{"measurement": "binding result", "setting": "DdrC [3]", "result": "binds"}]}
